Measured values taken from paper doi:10.1101/2022.01.25.477707 (bioRxiv, 2022).

Experiments:
[1] = biological target: T1, G5_(845-1508)-R1016C-TAP (human, UniProt Q8TEQ6 845-1508, R1016C); assay: co-IP
T1 sequence (looked up): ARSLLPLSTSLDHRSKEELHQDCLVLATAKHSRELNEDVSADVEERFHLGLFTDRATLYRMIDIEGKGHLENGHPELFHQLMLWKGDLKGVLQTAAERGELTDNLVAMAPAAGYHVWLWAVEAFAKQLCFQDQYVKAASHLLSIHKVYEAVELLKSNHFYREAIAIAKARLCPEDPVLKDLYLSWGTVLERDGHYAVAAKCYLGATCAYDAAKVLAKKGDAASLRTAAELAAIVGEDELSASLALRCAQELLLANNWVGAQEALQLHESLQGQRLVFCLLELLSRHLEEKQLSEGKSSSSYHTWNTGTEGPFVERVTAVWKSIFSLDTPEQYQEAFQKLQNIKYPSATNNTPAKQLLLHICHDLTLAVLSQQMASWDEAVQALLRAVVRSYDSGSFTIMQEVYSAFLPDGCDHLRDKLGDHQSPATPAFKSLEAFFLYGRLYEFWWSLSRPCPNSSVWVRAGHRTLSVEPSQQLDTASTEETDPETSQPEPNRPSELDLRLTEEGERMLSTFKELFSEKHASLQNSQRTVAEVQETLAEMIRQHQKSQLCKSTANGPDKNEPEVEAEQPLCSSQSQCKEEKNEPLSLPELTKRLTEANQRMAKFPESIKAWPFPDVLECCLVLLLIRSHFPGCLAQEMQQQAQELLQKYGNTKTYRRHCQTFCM

[2] = biological target: T2, G5_(845-1508)-D1019E-TAP (human, UniProt Q8TEQ6 845-1508, D1019E); assay: co-IP
T2 sequence (looked up): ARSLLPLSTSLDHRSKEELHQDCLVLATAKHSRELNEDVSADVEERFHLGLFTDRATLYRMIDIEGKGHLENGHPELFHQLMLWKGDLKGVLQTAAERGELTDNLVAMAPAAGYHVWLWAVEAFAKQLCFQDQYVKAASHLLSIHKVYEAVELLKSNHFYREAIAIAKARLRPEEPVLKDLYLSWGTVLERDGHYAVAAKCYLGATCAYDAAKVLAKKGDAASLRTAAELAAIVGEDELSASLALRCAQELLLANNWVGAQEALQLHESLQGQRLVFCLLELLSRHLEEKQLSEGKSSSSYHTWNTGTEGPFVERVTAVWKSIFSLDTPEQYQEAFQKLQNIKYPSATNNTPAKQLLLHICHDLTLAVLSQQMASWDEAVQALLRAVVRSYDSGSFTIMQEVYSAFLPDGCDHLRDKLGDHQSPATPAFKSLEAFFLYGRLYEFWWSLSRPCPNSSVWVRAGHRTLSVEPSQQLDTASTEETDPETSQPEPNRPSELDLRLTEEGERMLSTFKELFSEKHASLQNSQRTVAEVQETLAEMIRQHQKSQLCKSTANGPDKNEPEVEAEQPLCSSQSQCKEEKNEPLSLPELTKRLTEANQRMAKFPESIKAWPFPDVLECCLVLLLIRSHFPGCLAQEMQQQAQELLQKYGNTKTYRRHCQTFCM

[3] = biological target: T3, G5_(845-1508)-A951E-TAP (human), Q8TEQ6; assay: co-IP; conditions: remark: other sources report otherwise
T3 chain: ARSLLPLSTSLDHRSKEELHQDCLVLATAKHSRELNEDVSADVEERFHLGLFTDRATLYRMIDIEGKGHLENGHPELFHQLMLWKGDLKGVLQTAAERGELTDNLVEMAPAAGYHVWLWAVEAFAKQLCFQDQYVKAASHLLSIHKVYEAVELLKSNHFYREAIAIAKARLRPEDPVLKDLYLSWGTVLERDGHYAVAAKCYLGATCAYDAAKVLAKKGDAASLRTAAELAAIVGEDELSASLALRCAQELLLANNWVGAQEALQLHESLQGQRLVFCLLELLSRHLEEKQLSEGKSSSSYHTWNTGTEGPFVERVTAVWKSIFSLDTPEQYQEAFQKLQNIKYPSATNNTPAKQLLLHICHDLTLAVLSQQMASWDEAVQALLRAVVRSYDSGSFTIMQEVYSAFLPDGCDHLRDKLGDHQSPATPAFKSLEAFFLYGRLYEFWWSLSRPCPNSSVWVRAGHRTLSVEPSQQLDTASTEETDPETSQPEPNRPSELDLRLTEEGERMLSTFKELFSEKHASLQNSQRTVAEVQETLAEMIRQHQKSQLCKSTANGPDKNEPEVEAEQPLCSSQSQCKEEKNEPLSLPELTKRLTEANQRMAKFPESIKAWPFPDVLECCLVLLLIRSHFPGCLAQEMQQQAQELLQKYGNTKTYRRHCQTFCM

[4] = biological target: the molecule itself; assay: SEC-MALS

Binder	intensity of co-IP relative to the WT protein [1]	intensity of co-IP relative to the WT protein [2]	fold by which the recruitment of Gemin5 by WT exceeds that by this mutant [3]	stoichiometry N [4]
Gemin5 endogenous protein (natural protein, human (endogenous in HEK293), UniProt Q8TEQ6 1-1508, looked up) MGQEPRTLPPSPNWYCARCSDAVPGGLFGFAARTSVFLVRVGPGAGESPGTPPFRVIGELVGHTERVSGFTFSHHPGQYNLCATSSDDGTVKIWDVETKTVVTEHALHQHTISTLHWSPRVKDLIVSGDEKGVVFCYWFNRNDSQHLFIEPRTIFCLTCSPHHEDLVAIGYKDGIVVIIDISKKGEVIHRLRGHDDEIHSIAWCPLPGEDCLSINQEETSEEAEITNGNAVAQAPVTKGCYLATGSKDQTIRIWSCSRGRGVMILKLPFLKRRGGGIDPTVKERLWLTLHWPSNQPTQLVSSCFGGELLQWDLTQSWRRKYTLFSASSEGQNHSRIVFNLCPLQTEDDKQLLLSTSMDRDVKCWDIATLECSWTLPSLGGFAYSLAFSSVDIGSLAIGVGDGMIRVWNTLSIKNNYDVKNFWQGVKSKVTALCWHPTKEGCLAFGTDDGKVGLYDTYSNKPPQISSTYHKKTVYTLAWGPPVPPMSLGGEGDRPSLALYSCGGEGIVLQHNPWKLSGEAFDINKLIRDTNSIKYKLPVHTEISWKADGKIMALGNEDGSIEIFQIPNLKLICTIQQHHKLVNTISWHHEHGSQPELSYLMASGSNNAVIYVHNLKTVIESSPESPVTITEPYRTLSGHTAKITSVAWSPHHDGRLVSASYDGTAQVWDALREEPLCNFRGHRGRLLCVAWSPLDPDCIYSGADDFCVHKWLTSMQDHSRPPQGKKSIELEKKRLSQPKAKPKKKKKPTLRTPVKLESIDGNEEESMKENSGPVENGVSDQEGEEQAREPELPCGLAPAVSREPVICTPVSSGFEKSKVTINNKVILLKKEPPKEKPETLIKKRKARSLLPLSTSLDHRSKEELHQDCLVLATAKHSRELNEDVSADVEERFHLGLFTDRATLYRMIDIEGKGHLENGHPELFHQLMLWKGDLKGVLQTAAERGELTDNLVAMAPAAGYHVWLWAVEAFAKQLCFQDQYVKAASHLLSIHKVYEAVELLKSNHFYREAIAIAKARLRPEDPVLKDLYLSWGTVLERDGHYAVAAKCYLGATCAYDAAKVLAKKGDAASLRTAAELAAIVGEDELSASLALRCAQELLLANNWVGAQEALQLHESLQGQRLVFCLLELLSRHLEEKQLSEGKSSSSYHTWNTGTEGPFVERVTAVWKSIFSLDTPEQYQEAFQKLQNIKYPSATNNTPAKQLLLHICHDLTLAVLSQQMASWDEAVQALLRAVVRSYDSGSFTIMQEVYSAFLPDGCDHLRDKLGDHQSPATPAFKSLEAFFLYGRLYEFWWSLSRPCPNSSVWVRAGHRTLSVEPSQQLDTASTEETDPETSQPEPNRPSELDLRLTEEGERMLSTFKELFSEKHASLQNSQRTVAEVQETLAEMIRQHQKSQLCKSTANGPDKNEPEVEAEQPLCSSQSQCKEEKNEPLSLPELTKRLTEANQRMAKFPESIKAWPFPDVLECCLVLLLIRSHFPGCLAQEMQQQAQELLQKYGNTKTYRRHCQTFCM	58 % relative to the WT protein	62 % relative to the WT protein	10 fold	
Gemin5 TPR-like dimerization domain R1016C (domain or fragment, human, UniProt Q8TEQ6 845-1097, looked up) ARSLLPLSTSLDHRSKEELHQDCLVLATAKHSRELNEDVSADVEERFHLGLFTDRATLYRMIDIEGKGHLENGHPELFHQLMLWKGDLKGVLQTAAERGELTDNLVAMAPAAGYHVWLWAVEAFAKQLCFQDQYVKAASHLLSIHKVYEAVELLKSNHFYREAIAIAKARLCPEDPVLKDLYLSWGTVLERDGHYAVAAKCYLGATCAYDAAKVLAKKGDAASLRTAAELAAIVGEDELSASLALRCAQELLL				2
Gemin5 TPR-like dimerization domain D1019E (domain or fragment, human, UniProt Q8TEQ6 845-1097, looked up) ARSLLPLSTSLDHRSKEELHQDCLVLATAKHSRELNEDVSADVEERFHLGLFTDRATLYRMIDIEGKGHLENGHPELFHQLMLWKGDLKGVLQTAAERGELTDNLVAMAPAAGYHVWLWAVEAFAKQLCFQDQYVKAASHLLSIHKVYEAVELLKSNHFYREAIAIAKARLRPEEPVLKDLYLSWGTVLERDGHYAVAAKCYLGATCAYDAAKVLAKKGDAASLRTAAELAAIVGEDELSASLALRCAQELLL				2
